Reference: patent publication US20210388105A1 (ELPISCIENCE SUZHOU BIOPHARMA, published 2021)

Tests used:
[1] = target: T1, human CD39 (full length, on cells) (human, UniProt P49961 1-510); test: FACS, SK-MEL-28 cells
T1 construct: Recombinant on CHOK1-hCD39 cells or natural on SK-MEL-28, SK-MEL-5 and MOLP-8 cells; the cell line is named under assay; also called hCD39; ENTPD1
T1 sequence: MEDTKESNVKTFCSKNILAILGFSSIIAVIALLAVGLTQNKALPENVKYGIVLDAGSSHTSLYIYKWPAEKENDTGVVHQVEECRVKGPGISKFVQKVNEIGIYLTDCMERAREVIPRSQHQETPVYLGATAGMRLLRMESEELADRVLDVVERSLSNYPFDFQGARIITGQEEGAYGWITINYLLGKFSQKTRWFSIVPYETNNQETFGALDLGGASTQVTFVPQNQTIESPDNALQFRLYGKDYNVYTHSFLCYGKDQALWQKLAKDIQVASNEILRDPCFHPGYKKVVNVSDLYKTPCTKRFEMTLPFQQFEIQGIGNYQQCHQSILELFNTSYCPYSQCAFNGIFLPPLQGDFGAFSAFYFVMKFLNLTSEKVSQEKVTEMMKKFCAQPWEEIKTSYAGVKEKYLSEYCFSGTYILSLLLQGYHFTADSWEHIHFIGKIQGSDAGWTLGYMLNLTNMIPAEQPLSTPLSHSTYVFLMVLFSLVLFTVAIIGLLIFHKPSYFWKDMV
Experimental: (§1) FACS were used to determine binding of the antibodies to cell lines expressing CD39 naturally (SK-MEL-28) or recombinantly (CHOK1-hCD39, CHOK1-cynoCD39, and CHOK1-mCD39), or with cells lacking CD39 expression (CHOK1-blank) as a negative control.
Similarly, human CD39 expressing cells SK-MEL-5, SK-MEL-28 or MOLP-8, were incubated with a gradient concentration of anti-CD39 antibodies for 30 minutes at 4° C. Cells were washed 3 times using FACS buffer and next incubated with fluorescence labelled secondary antibody (goat-anti-mouse IgG or goat anti-human IgG) for 30 minutes at 4° C. Cells were washed 3 times and then re-suspended in FACS buffer and analyzed by flow cytometry analysis on BD Celesta. Data plotted and analyzed using GraphPad Prism 8.02.

[2] = target: T1, human CD39 (full length, on cells); test: FACS, CHOK1-hCD39 cells
Text: as §1
(§2) CHOK1-hCD39, CHOK1-cCD39, CHOK1-mCD39 and CHOK1-blank cells were maintained in culture medium according to ATCC procedure. Cells were collected and re-suspended in blocking buffer at a density of 3×10⁶ cells/ml. Cells were transferred to 96 well FACS plates at 100 μl/well (3×10⁵ cells/well), the plates were centrifuged and washed twice with FACS buffer (PBS, 1% FBS, 0.05% Tween-20). 4-folds serial dilution of anti-CD39 antibodies were prepared in FACS buffer starting from 30 μg/ml. Reference antibody 9-8B and mouse/human control IgG were used as positive and negative controls, respectively. Cells were re-suspended in 100 μL/well diluted antibodies, and the plates were incubated at 4° C. for 60 min. […] The plates were washed with FACS buffer, and cells were re-suspended in 100 μL/well of PBS. Cells were then analyzed with FACSVerse™ and mean fluorescence intensity were determined. Full binding curves were generated on the CD39 expressing cells by testing a range of antibody concentrations. Apparent affinity was determined for each antibody using Prism software.

[3] = target: T1, human CD39 (full length, on cells); test: FACS competition on CHOK1-hCD39; competitor 9-8B-Alexa488
Experimental: (§3) Anti-CD39 antibodies were labeled using Alex488 labeling kit and were diluted in a series of concentrations, before mixing with CHOK1-hCD39 cells to test binding EC₅₀using FACS. The non-labeled antibodies were tested for their blocking efficacy to the labelled ones. Briefly, mononuclear CHOK1-hCD39 cells were prepared to 2×10⁶/ml and plated into 96 well at 50 μl/well, then mixed with antibodies gradients to final volume at 100 μl, and then equal volume of Alex488 label antibodies were added at two folds EC80 concentration. 96 well plates were incubated at 4° C. for 1 hour, and spun down and washed 3 times with 200 μl FACS buffer. The FACS analysis was performed on FACScelesta machine and data was analyzed by Flowjo software. The blocking percentages were calculated and those having above 80% competition rate were allocated into one epitope group, compared with the non-competing well (Alex488 labeled antibody only).
(§4) Based on the competition results, the 4 anti-CD39 hybridoma antibodies (mAb14, mAb19, mAb21, mAb23) can be grouped into 4 different epitope groups, as shown in Table 11.

[4] = target: T1, human CD39 (full length, on cells); test: cell-based or functional assay
[5] = target: T1, human CD39 (full length, on cells); test: FACS competition on CHOK1-hCD39; competitor mAb23-Alexa488
Experimental: as §3, §4

[6] = target: T1, human CD39 (full length, on cells); test: FACS competition on CHOK1-hCD39; competitor mAb19-Alexa488
Experimental: as §3, §4

[7] = target: T2, cynomolgus CD39 (full length, on CHOK1-cynoCD39 cells) (cynomolgus monkey, UniProt A0A7N9DGH8 1-510); test: FACS, CHOK1-cynoCD39 cells
T2 construct: whole, on cells; also called cCD39
T2 sequence: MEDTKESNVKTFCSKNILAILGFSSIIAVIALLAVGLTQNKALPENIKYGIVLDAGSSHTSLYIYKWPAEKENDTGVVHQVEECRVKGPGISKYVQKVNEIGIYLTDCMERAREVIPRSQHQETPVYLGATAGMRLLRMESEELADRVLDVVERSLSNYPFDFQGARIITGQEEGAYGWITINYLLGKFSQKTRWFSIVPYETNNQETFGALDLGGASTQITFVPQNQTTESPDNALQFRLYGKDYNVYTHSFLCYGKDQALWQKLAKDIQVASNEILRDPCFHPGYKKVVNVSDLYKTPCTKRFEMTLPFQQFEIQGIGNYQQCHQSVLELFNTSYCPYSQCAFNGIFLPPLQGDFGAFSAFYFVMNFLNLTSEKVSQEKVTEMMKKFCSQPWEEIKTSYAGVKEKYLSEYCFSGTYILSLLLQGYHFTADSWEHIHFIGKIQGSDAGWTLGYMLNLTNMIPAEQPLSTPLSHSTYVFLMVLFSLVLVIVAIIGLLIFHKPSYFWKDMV
Text: as §1, §2

[8] = target: T1, human CD39 (full length, on cells); test: FACS competition on CHOK1-hCD39; competitor mAb14-Alexa488
Experimental: as §3, §4

[9] = target: T3, mouse CD39 (full length, on CHOK1-mCD39 cells) (mouse, UniProt P55772 1-510); test: FACS, CHOK1-mCD39 cells
T3 construct: whole, on cells
T3 sequence (looked up): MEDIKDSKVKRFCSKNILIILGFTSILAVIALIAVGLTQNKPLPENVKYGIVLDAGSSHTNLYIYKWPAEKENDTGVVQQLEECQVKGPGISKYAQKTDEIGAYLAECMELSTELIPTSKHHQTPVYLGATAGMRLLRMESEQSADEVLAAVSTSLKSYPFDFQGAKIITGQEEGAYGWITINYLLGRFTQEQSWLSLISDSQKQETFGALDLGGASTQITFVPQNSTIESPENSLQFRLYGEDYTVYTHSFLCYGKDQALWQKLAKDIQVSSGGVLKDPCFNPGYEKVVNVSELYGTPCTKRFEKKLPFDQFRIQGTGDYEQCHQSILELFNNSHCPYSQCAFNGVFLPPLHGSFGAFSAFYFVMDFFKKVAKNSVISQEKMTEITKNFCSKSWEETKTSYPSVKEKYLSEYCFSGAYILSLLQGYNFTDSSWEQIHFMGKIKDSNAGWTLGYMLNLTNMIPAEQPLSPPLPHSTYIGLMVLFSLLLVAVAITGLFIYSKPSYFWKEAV
Text: as §1, §2

[10] = target: T1, human CD39 (full length, on cells); test: FACS competition on CHOK1-hCD39; competitor mAb21-Alexa488
Experimental: as §3, §4

B1: mAb23 (antibody, V domains shown)
VH: EVQLQQSGAELLRPGASVKLSCTASGYNLKDTFLHWVKQRPEQGLEWIGRIDPANGNIKYDPKFQGKATLTADTSSNTAYLQLISLTSEDTAVYYCANSPYYYGSGYRIFDVWGAGTTVTVSS
VL: QIVLTQSPAIMSASPGEKVTITCSAFSSVNYMHWYQQKPGTSPKLLIYTTSNLASGVPTRFSGSGSGTSYSLTISRMEAEDAATYYCQQRSTYPFTFGSGTKLEIQ
notes: mouse hybridoma antibody
- EC50 [1]: 1.6 nM
- EC50 [2]: 1.7 nM
- blocking percentage [3]: 98%
- SK-MEL-28 cell based ATPase inhibition % at 10 nM [4]: 75%
- blocking percentage [5]: 100%
- blocking percentage [6]: 98%
- EC50 [7]: 2.3 nM
- blocking percentage [8]: 86%
- binding result [9]: no binding (tested: 30 µg/ml highest concentration)
- blocking percentage [10]: 93%

B2: mAb19 (antibody, V domains shown)
VH: EVKLEKSGGGLVQPGGSMKLSCVASGFTFSNYWMNWVRQSPEKGLEWVAQIRLNPDNYATHYAESVKGRFTISRDDYKNSVYLQMSSLRAEDSGIYYCTQHGSRGFAYWGQGTLVTVS
VL: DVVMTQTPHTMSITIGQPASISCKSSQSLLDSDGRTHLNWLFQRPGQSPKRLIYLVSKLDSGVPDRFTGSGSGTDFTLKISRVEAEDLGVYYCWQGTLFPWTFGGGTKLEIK
notes: mouse hybridoma antibody
- EC50 [1]: 46 nM
- EC50 [2]: 4.5 nM
- blocking percentage [3]: 6%
- SK-MEL-28 cell based ATPase inhibition % at 10 nM [4]: 65%
- blocking percentage [5]: 91%
- blocking percentage [6]: 96%
- EC50 [7]: 5.8 nM
- blocking percentage [8]: 23%
- binding result [9]: no binding (tested: 30 µg/ml highest concentration)
- blocking percentage [10]: 83%

B3: mAb21 (antibody, V domains shown)
VH: EVKLEKSGGGLVQPGGSMKLSCVASGFTFSNYWMNWVRQSPEKGLEWVAQIRLNPDNYATHFAESVKGRFTISRDDSKNSVYLQMNSLRAEDTGIYYCTEHGTRGFAYWGQGTLVTVSE
VL: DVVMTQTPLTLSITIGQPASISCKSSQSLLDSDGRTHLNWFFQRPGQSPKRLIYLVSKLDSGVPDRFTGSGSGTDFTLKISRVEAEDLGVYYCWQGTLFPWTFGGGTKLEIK
notes: mouse hybridoma antibody
- EC50 [1]: 90 nM
- EC50 [2]: 6.7 nM
- blocking percentage [3]: 20%
- SK-MEL-28 cell based ATPase inhibition % at 10 nM [4]: 70%
- blocking percentage [5]: 97%
- blocking percentage [6]: 98%
- EC50 [7]: 11 nM
- blocking percentage [8]: 24%
- binding result [9]: no binding (tested: 30 µg/ml highest concentration)
- blocking percentage [10]: 90%
